Data on four molecules can be found in patent US20250195578A1, “MEDIUM COMPOSITION FOR CULTURING URINE-DERIVED STEM CELL, METHOD FOR ISOLATING AND CULTURING URINE-DERIVED STEM CELL USING SAME, URINE-DERIVED STEM CELL WITH IMPROVED THERAPEUTIC FUNCTION FOR RENAL DISEASE, AND CELL THERAPY PRODUCT COMPOSITION CONTAINING SAME” (EHLBIO CO., LTD., priority 2021, published 2025).

One data set deals with urine-derived stem cells. Briefly: Optimal additive concentration: cell proliferation rate of urine-derived stem cells. The following applies: enhancement in proliferation relative to added dosage. The data set is classed as cell-based, human. The method, then:
(§1) In this Example, cell proliferation rate or klotho gene analysis was conducted with various concentrations of lipid mixture (CDLC), T3, FGF23, Calcifediol, and PTH in the TM8 culture medium to explore their optimal concentrations (see FIG. 5).
Specifically, CDLC was used to compensate for the decrease in cell proliferation rate caused by low serum usage, while T3 was used to facilitate the proliferation of urine-derived stem cells with characteristics of epithelial cells. In this example, evaluation was made of the improvement of cell proliferation rate in urine-derived stem cells in various concentration ranges of lipid mixture and T3 to determine their optimal concentrations.
(§2) Additionally, in this Example, to explore the optimal concentrations while excluding the interactions among the substances, each substance was individually added to the TM8 basal medium (hereinafter referred to as proliferation or klotho gene TM8-Basal), and cell expression was analyzed and compared. The TM8 medium containing all substances at their optimal concentrations was used as the control group (FIG. 6).

Another data set relates to klotho gene. In words: Optimal additive concentration: klotho gene expression in urine-derived stem cells. The data set is classed as cell-based, human. The conditions noted are these: for effect on klotho gene expression of addition to TM8 medium: compared to control group, dose-dependent; for optimal concentration (klotho gene expression): enhancement in gene expression relative to added dosage. Here is the method: as §1
Furthermore, FGF23, Calcifediol, and PTH that are added to the culture medium of the present disclosure are growth factors and hormones that interact through the endocrine system in the human kidney. The klotho proteins in the human body mediate these interactions. The inventors aimed to enhance the expression of klotho proteins in urine-derived stem cells by mimicking the endocrine system in the human body through the composition of the culture medium. In this Example, evaluation was made of the enhancement of klotho gene expression in urine-derived stem cells in various concentration ranges of FGF23, Calcifediol, and PTH to determine their optimal concentrations.
as §2

As for `N[C@@H](Cc1cc(I)c(Oc2ccc(O)c(I)c2)c(I)c1)C(=O)O` [T3, Triiodo-L-thyronine], the “optimal concentration (cell proliferation)” value in the data set with urine-derived stem cells was found to be 10 nM.
`C=C1CC[C@H](O)C/C1=C/C=C1\CCC[C@]2(C)[C@@H]([C@H](C)CCCC(C)(C)O)CC[C@@H]12` [Calcifediol, reference compound]: in the data set with klotho gene, the “effect on klotho gene expression of addition to TM8 medium” value (“effect on klotho gene expression” below) is listed as “increased klotho gene expression” and the “optimal concentration (klotho gene expression)” value was 100 nM.

B1: PTH: parathyroid hormone (PTH), medium additive (Sigma-Aldrich) (peptide, UniProt P01270 32-115, looked up)
Parathyroid hormone: SVSEIQLMHNLGKHLNSMERVEWLRKKLQDVHNFVALGAPLAPRDAGSQRPRKKEDNVLVESHEKSLGEADKADVNVLTKAKSQ
modifications: Parathyroid hormone
Consider B1, for which, in the data set on klotho gene, the “effect on klotho gene expression” value was “increased klotho gene expression” and the “optimal concentration (klotho gene expression)” value is recorded as 100 nM.

B2: FGF23: growth factor added to the culture medium (Sigma-Aldrich) (protein, UniProt Q9GZV9 25-251, looked up)
Fibroblast growth factor 23: YPNASPLLGSSWGGLIHLYTATARNSYHLQIHKNGHVDGAPHQTIYSALMIRSEDAGFVVITGVMSRRYLCMDFRGNIFGSHYFDPENCRFQHQTLENGYDVYHSPQYHFLVSLGRAKRAFLPGMNPPPYSQFLSRRNEIPLIHFNTPIPRRHTRSAEDDSERDPLNVLKPRARMTPAPASCSQELPSAEDNSPMASDPLGVVRGGRVNTHAGGTGPEGCRPFAKFI
As to B2, in the data set with klotho gene, the “effect on klotho gene expression” value is “increased klotho gene expression” and the “optimal concentration (klotho gene expression)” value amounted to 10 ng/mL.
